Experiment: soluble on expression in E. coli; label from the status in PepcDB or PDB records
With “MAHHHHHHMNKMKSTKIENPKYKLMKLIGKGTFGKVYSAIDMSTQEAVAIKRSPKWRNKVSREVDLLKKMNGSTNIVKIKSVFYTTTKKGYRIQNIVFKYMTYSLGRYIRMKKQEKRENNQICIGIKDLHKNDFAHRDLKPDNILIDLDSSNIKIEICDLGSAKKVQRNIISIPYICSRWYRAPELLCGSMFYTTEVDLWSLGCIIFELINLCPLFPGKFKKDEYSEECSQIINLIEVIGSPQMSFFENIKDHTSKKNTLLIKELCELNIKPLCWDEILGNILEIENPNERLNIDAVLSNPYFSTLNK” the “soluble on expression in E. coli” value was “not soluble”.
With “MAHHHHHHMNLIHICLFIIVIKCYVNCIKKNNKHIAYDKFYKQGSNTIVGSGNGSGDLLFLNNININKNVERKKNILAHSEIGTVRNIDDINLLNHNKKNEISFTKCKQIATIGPASENFEQLEKLYLNGIDVFRLNFSHGLKSIKKYIINSIRILEKKYDTTIGILGDIQGPKIRIGEFEKNQINENDNNTFVELKEGDLFSFDLMNSLGNQNRVQLNYPELIKNAKAGQIILLDDGNLKMKILENNYDTSNIQNSYIKVQVLTGGKLYSKKGFCIPNMIMPIDVLSEKDIKDILFCINEEVDFLGYSFVQTEYDLIFLRNIINDYYESDFYNNIKRKDRINFDQNNLQMKTFDDENDFYIKEVNDYYNNYYLKNVQKYKQIYDVYKNQDLYINDNIQNHYNKNIVTNIGDDKNIIDEQHIHNNNNNNIDNIMKNYSNLYNINKDHNKIAIISKIEKPSAIKNIENIIKLSDGIMIARGDLGIETNLSNLPILQKKLINLCRIKYNKPVIVATQMMESMRFLPSPTRAEVTDVATALYDGSDCVMLSAETATGQYPILTVSTQNKIIKDVENDYYYYEYTQRKNDKLKMLDHKNNCCHENKDIQQINKYNHEYIQNNKYEQDIQNNISYFDKLIFSIRDISNNINLKSIILFSNEFNKIQKLSNLRTKAPIIVITENKYLARKLQLTWGIYPHLSKKQNLFNHDLFSLINYGCDVSKKEGFVNSPDEYSLVTFSKNINSANLLYLCQPCLTN” the “soluble on expression in E. coli” value was “not soluble”.
For “MAHHHHHHMNPHPVEPRDQIAELLVESPLFSFNCAHFIAFKGFRETLHGHNYNVSLRLRGNIQGDGYVIDFSILKEKVRKVCKQLDHHFILPMYSDVLNIQEVNDNFKITCEDNSEYSFPKRDCVQIPIKHSSTEEIGLYILNQLIEEIDLPFLKTRSVNYMEVTVSESPSQKATVHRNI”, the “soluble on expression in E. coli” value was “soluble”.
In the case of “MAHHHHHHMNVALIFGITGQDGSYLSELLLEKGYTVHGVIRRCSSFNTKRIDHIFDQLNLHYGDVLDSSSICKLISKIKPHEIYNLAAQSHVKVSFELPVYTAETTAVGTLRILEAIKISNLPDVKFYNASTSELFGSSTDDRQHESTPFNPVSPYAIAKLYSHYITICYRKSYQMFCVNGILFNHESPRRGETFVTRKITRGVANICKNRQNCLVLGDLSTYRDWGHAKDYVRAMYLMLQQDEPDDFVISSNEKHTVKEFCEISFSFVGIFLKWKGTGIQEVGVDQHDRVLIKKDPRYYRECDVFHLHGDSSKARQKLQWAPTYSFFQLIYEMLTYDFEQCSLPIDDFDTCVSRYENYRGVPTK”, the “soluble on expression in E. coli” value was “not soluble”.
With “MAHHHHHHMNVEVTGRCFFTGDDYYISLPITNRAANRGEPRQLLCSEMIHWDDYRQERGINDGKPPMQQLFASSYAEPLVRTFALGNDTYVTQVTGVSATQAGSSSQMFSAEMLHWDDYCAARGINAGEPTMASLFRPFESKSILVFDLNERKLTEFEGNSVALISYGADRQTYCSEMEHRDDYIRAKTGQAPQPSMASLFA” the “soluble on expression in E. coli” value was “not soluble”.
For “MAHHHHHHMPAVKQHLTGKASAAMRPTPSDAGAVLEPLTVRPSRVTTTTDHLTTSSAISTISVDTIRECGSAEDAYEAGKELGGVGPVFTGVAVPAEHPVAAAMPADAAELRHEEELKVIMCRYRPQSTEN”, the “soluble on expression in E. coli” value was “soluble”.
In the case of “MAHHHHHHMPLKFAPKALNPEDSMRLAVVHMLRHDNAVILQTFTGNRGSSATRHGRLLRFMPHFPFCPTEKTGETAEEAPHLVEIAPLQLPYWARGSSRETMWPAARTPEAVHPSPPHFPHFLAERSSSLFVSISLPHFDLPLVFASPRREQRCSRDCRAEWLPRAVMDRDVAATWDEMLSAFCAAWSAAVRIEKTPFALLPPSLSHPLLAEQPLGEGRVPLQDEPAASFRLDPIVVPRRKLDRQRSERMLPPILAVDVAGKWNDTPSVFKSQEAALQRRFLAVARTLERTTAAPSRPLIVASVETPLTSDAAGECERLELASVVVPPFMCTQRMKAGRPWREGGHAGGRDTLVQEHSESLFSRMPPCMTRATELRFPDGKHMRQTLTLRNTAKERLEKLCGLRPPRRHRQKMAECFSTSKFSIARSRELAAAALLPSTVLSAASRVKPPHCSERKRRRGDVPPPPPPLQLLPHVRATAVFAFSSWQPLTLEEEEEENNDTCCEEELKIAPWRVFPREVELQSFQQLLERRIERNGKAMRVGNDDEEEKWYHAAFVHDVNTMPLPYREVSDLVEDARLHYCYRLALHREKRRLGL”, the “soluble on expression in E. coli” value was “not soluble”.
In the case of “MAHHHHHHMPLRIGGFNVCCYHDCTNAAAIHAELKRRHIDAAVVDHAFLISPLQLAVALFRVEGSADMLTTRSPFTISPPLAEASSPSPTSTSASPSLPPLLQQQPTRRVSNSRQIFAALSLSHNLDRILQVLPPGPQTTSVVIIYKRSGSARAAAVSFADDVGADSAVASTVPDGDGLDATINACVQLTNSAAQAHTFALITEPFWTGAAFAFADVSKVALFYGISESMLLAAQRSMTRADVRRVCVGAESQEAPAQVLRWHALEVCVTTLLSACTA”, the “soluble on expression in E. coli” value was “soluble”.
For “MAHHHHHHMPPLAQLCALALQYRCDLSQEIDQNIRSCFHSSRVPSISLWDYIRRFAKYSVCSEECFILAMVLMDRYVCKTQIPITLRNVHRLYITAMTLSVKLRDDSYYSNAYYASIGGVVNAELNVLELELLDIVQWFTWVEKSVYDAYVARLEALFGDAMPKLLVASPNK”, the “soluble on expression in E. coli” value was “not soluble”.
With “MAHHHHHHMPRALRYCRPRRDPDESLLAYLSTKFTYLADAQWRQHIAAGDISVNGETLTDGSYVLRQGDMLRFAPPRSLEPPVDSEHIEVLYEDSTLLVVTKNGNLPVAEGGRYCENTLVEVLRRRGTAAFYTASTRTSFGTTHEDTEKVSDSPTHAGEIVETAARAEGSTAMDASGKGAEIPTSPPSRRRLEDGSHGIFAVGSAPCASVPSPKASTVQQRSSLDLFTVQRLDKETSGVVVLAKNSVSARTLASQLEAQTKGCADAVESRLRERGHAVALSSDAFDELLRLKAQSVHKTYTAVLRGAAPEDHTFVVVNCMDCMAKHPTHSWEAQHTQLKKLKMCCEPVKEMLFSHAAAALPQSPKEQQTRWGRLAVTRIRVLASNKKLGLTCVQVELLTGRSHQIRLHCAAVGYPVLGDKLYTTMTPGREGGATAVSDAVYLERVRREDDPYLPIDDDVSGAGGSSRSGKMWCRRHLLHATRIIFAHPDVSPARLMTFMASPAPFFTADVRFECEEDSLLFSQWLTRAVSRPLERAEASQS” the “soluble on expression in E. coli” value was “not soluble”.
For “MAHHHHHHMPRPPQRIRAQSEGVVGRWYTNYWTLHSVRYQCQLAGVEWQFGERQRPRTNYDEPHMYTDFEETKAIRDYRSRWINVNRSLVGMSRRMKESEEEARYLHFKKVQDTFWSNRKVLVNRIKSMHNQGTLQSAKDLPIKTINIKAFLAE”, the “soluble on expression in E. coli” value was “soluble”.
For “MAHHHHHHMPRSEKQSEEDDWELHPLFLSKIPNKKDINKNQALSALITLINEEEEKEVFSYEPRRKNLKKKITEKGQIIYKKDRRNFYEPYQQNKNDKINYFEKKTLGGHSDVSKEEEVMDVEVDEEGTPLTAAQQGGDHSGQNVSSSQQATDETSIGEVLVCLSMINLK”, the “soluble on expression in E. coli” value was “not soluble”.
In the case of “MAHHHHHHMPSAPTCQHGSYHQCECYGHNTQLPNYRHDISNPRTLQGYYAPNGGCPCPATCGAEKHGLYCSDRGADASAMPKLTFRAADGPHTVHSASDVDGNGRDPATSIRTAFPNSRNYGGTVAQRGPTTLSTRAQLSASRKARAEAKREERAQDRKNFLRGVLRDEMLARMDAEGKRAALEADTGLMGTHHGEEYEANQRAAGSMRGGLDSTSRDPDTVLTLGEQYREIMDELEYVADQPVGSKYNIIRLHYLVEEEDRLNRLRLQERIRKTAEAMQSKK”, the “soluble on expression in E. coli” value was “not soluble”.
With “MAHHHHHHMQEFSTYSLFSRKNETVSGMDENFDNHPENYFKEEYYYDENDDMEVKVKKIGVTLKKFEPLKNGNVSETIKLIHLGNKDKKHIEAINNDIQIIKQELQAIYNELMNYTNGNKNIQQIFQQNILENDVLNQETERQTRSRGGG” the “soluble on expression in E. coli” value was “soluble”.
With “MAHHHHHHMQFGIKVEPYGYDKLVWLETDALKVGLTNYAASVASIQVYHPADNKWIEVNCGYPKNPEEAYADPDYMGATVGRCAGRVAGGVFTLDGVKYYTQKNRGENTCHCGDDAYHKKHWGMKLIETANVIGVRFNYTSPHMESGFPGEVKNYCTFTIDRSKPNALKTIYDSYITDNSPCDASPINVFSHTSFNLNGIPGQQDGEKNWVQPESVRNHWLRVPASRVAEADRMAIPTGEFLSVEGTGLDFRQGRVIGDCIDDVALLDRDPCGYDHPLAIDGWEKGKLMLHAEAKSPVTNICMKVYSTFPCMWVYTANNKPLPASGGPGQRYARWTGLLVGPQNFSDVANHYPKYPSCIVRRGERQYSETTINEFTIEQ” the “soluble on expression in E. coli” value was “soluble”.
In the case of “MAHHHHHHMQFGPVVSEAEIRTVQDGIANGVRSDGRSLTQRRPFTVVTNRGSTTHFEGSSVEVHCDGTTVVAAATPSVVELDIDRGQAPRGSLFVNIDAVPAVVEHYAQSVRNNSARYRQAFLSFLATAIRQTFGAQGVTAEERQQQLGIAEAEIIADEGDDEQREDAFGGRGAAEEKPVEETAEQRVDCCGFPGEQLYIGGGYAFRIDVDAHVLQAHGGSLASIVALAVHAALKTVRLPSVTLHEASAGFSLEVNYSKPYATAVNWSRLPVLSVVHVSPTRHYVVDPTRLEELALPQQLRVAVNSFGQVFHMRFQQLPSRRGNAMRLIRSPREEAGKDNSNDNSERDVDGDDVDDSSRRGFDAGVKGTVGGMNMPDMAAVLHAAVHISQAVIAECDEALAGSSG”, the “soluble on expression in E. coli” value was “not soluble”.
For “MAHHHHHHMQQLEQELSLRQSAIETREQQLEMVQLDGARGREAIMRERHSIEEVRRTVRVERCRQRRLWIHQIKEMNAKVLEQVRLLAEERKKNCEQATAKEDAAERAFAADIKMIEEYLPKLISLEDIPVNPEETDIIRRQFDEVFTQGEQTYLASAEEEQARKERLGRGLEVYRQRMLDDYVGKENGKLHDAEATERHLSSVVDQVLN”, the “soluble on expression in E. coli” value was “not soluble”.
With “MAHHHHHHMQSQQHHYTASPTASPALSRAGVSSTPVLILDLGSRTIKSGLHTATTPHLTPALVGTPKYPRCLPQVSSSFNQSSSISTSCFVVGSDAASRRGVLRLSRPIQHGGVIMDWVGTRPLLRQSIQNALVPPSSSLAVRQPLEEGEDVIYSLVESPYASRPQRARLAELLFEGPDQEAVMSDSGKQQRVGPRAAGVFCGVGPLLALYATGQTTGVVVDVGDGAVSTAAAADGYVLPQCLQREADGATGAAVTSYLTRLLYQSGVLGPAAATAAFRRSAPPSLLGSATNHLSSGAGAGTQQERELVYALKEACCSVSATPLFSTKSSLAAADASTAATPSLAELNSALIAAAQRTQHSGPGGSGAAHASTPFSHPFTLPDGSFLEVGGAEAAQASEVLFYPALMGSEGRGVVDVVLDAVAAAPAELQPQLLGNVVVTGGVTCSAGFGYRFFNEMQQRIRGCAASSTNGSSNQRICVSAPEQRAYAAWMGASYVAQISSFASSMVVTRAAYEEEGEAALARRVLT” the “soluble on expression in E. coli” value was “not soluble”.

Reference: the DeepSol protein solubility set
